Literature values, collected in PMC6201748.

Target: ZipA (Escherichia coli) (UniProt P77173)
Experiment: SPR

FtsZ, sequence (P0A9A6 whole entry): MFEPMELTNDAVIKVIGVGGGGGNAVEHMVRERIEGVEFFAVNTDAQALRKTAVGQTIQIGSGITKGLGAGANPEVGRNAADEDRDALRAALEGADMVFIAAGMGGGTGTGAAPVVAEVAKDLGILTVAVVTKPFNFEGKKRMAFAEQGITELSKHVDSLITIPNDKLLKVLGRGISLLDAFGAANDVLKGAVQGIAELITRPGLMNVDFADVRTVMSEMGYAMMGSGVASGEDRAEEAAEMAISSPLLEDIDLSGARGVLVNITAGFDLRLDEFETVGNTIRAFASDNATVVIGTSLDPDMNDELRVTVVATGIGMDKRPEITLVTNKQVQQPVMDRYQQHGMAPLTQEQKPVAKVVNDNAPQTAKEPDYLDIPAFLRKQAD

In the case of FtsZ (from UniProt P0A9A6), the Kd is given as 7 µM.
